Source: patent US11844843 (DYNE THERAPEUTICS, dated 2023)
Residue numbers refer to the chain shown, from its start. In names and notes the source's numbering stands.

T1: recombinant cynomolgus monkey (Macaca fascicularis) TfR1 (cynomolgus monkey (Macaca fascicularis), UniProt Q5RDH6 87-760 (Pongo abelii entry), limits assumed)
T1 construct: Recombinant protein; also called cTfR1; cyTfR1
T1 chain: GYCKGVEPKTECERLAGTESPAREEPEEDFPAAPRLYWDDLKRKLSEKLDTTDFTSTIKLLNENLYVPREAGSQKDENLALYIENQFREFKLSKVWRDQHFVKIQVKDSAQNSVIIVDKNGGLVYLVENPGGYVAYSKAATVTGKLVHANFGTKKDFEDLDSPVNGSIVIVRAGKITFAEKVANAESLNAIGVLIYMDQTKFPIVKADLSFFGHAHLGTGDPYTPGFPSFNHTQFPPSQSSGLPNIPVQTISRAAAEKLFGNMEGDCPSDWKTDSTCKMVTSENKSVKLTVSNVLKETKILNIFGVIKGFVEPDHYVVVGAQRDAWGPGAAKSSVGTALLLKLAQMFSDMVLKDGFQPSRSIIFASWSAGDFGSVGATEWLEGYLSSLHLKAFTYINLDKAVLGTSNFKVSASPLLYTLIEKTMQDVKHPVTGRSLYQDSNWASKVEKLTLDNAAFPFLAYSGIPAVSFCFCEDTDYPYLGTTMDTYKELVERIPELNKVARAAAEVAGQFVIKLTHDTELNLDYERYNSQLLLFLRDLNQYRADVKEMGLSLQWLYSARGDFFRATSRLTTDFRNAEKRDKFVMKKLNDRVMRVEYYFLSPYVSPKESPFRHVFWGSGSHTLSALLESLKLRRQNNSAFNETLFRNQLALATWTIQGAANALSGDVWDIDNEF

B1: humanized anti-TfR Fab 5H12 VH5 (C33Y)/Vκ4 (Fab, V domains shown)
VH: QVQLVQSGAEVKKPGASVKVSCKASGYSFTDYYINWVRQAPGQGLEWMGWIYPGSGNTRYSERFKGRVTITRDTSASTAYMELSSLRSEDTAVYYCAREDYYPYHGMDYWGQGTLVTVSS
VL: DIVMTQSPDSLAVSLGERATINCRASESVDGYDNSFMHWYQQKPGQPPKLLIFRASNLESGVPDRFSGSGSGTDFTLTISSLQAEDVAVYYCQQSSEDPWTFGQGTKLEIKR
notes: also called 5H12 (VH5-C33Y/Vk4)
B2: conjugate of humanized anti-TfR Fab 5H12 VH5 (C33Y)/Vκ4 with DMPK-targeting oligonucleotide ASO300 (Fab, V domains shown)
VH: B1 VH
VL: B1 VL
modifications: oligonucleotide ASO300 conjugated to the Fab via linker; residue and chain not stated
B3: humanized anti-TfR Fab 5H12 VH5 (C33Y)/Vκ3 (Fab, V domains shown)
VH: B1 VH
VL: B1 VL with M4L, G72R
notes: also called 5H12 (VH5-C33Y/Vk3)
B4: humanized anti-TfR Fab 3A4 VH3 (N54T)/Vκ4 (Fab, V domains shown)
VH: EVQLVQSGSELKKPGASVKVSCTASGFNIKDDYMYWVRQPPGKGLEWIGWIDPETGDTEYASKFQDRVTVTADTSTNTAYMELSSLRSEDTAVYYCTLWLRRGLDYWGQGTLVTVSS
VL: DIVMTQSPLSLPVTPGEPASISCRSSKSLLHSNGYTYLFWFQQRPGQSPRLLIYRMSNLASGVPDRFSGSGSGTDFTLKISRVEAEDVGVYYCMQHLEYPFTFGGGTKVEIKR
notes: also called 3A4 (VH3-N54T/Vk4)
B5: humanized anti-TfR Fab 3A4 VH3 (N54S)/Vκ4 (Fab, V domains shown)
VH: B4 VH with T55S
VL: B4 VL
notes: also called 3A4 (VH3-N54S/Vk4)

How the values were obtained:
[1] = target: T1, recombinant cynomolgus monkey (Macaca …); assay: ELISA, recombinant TfR1 coated, unconjugated Fab (row 'Fab binding affinity ELISA')
[2] = target: T2, recombinant human TfR1 (transferrin receptor protein 1) (human, UniProt P02786 89-760); assay: as above
T2 construct: Recombinant protein in SPR and ELISA; they were assigned to this molecule; also called hTfR1; huTfR1

[3] = target: T1, recombinant cynomolgus monkey (Macaca …); assay: Table 14, unconjugated Fab, d0; method not named (values equal ELISA row of Table 13)
[4] = target: T2, recombinant human TfR1 (transferrin …); assay: as above
[5] = target: T2, recombinant human TfR1 (transferrin …); assay: kinetic analysis (Biacore), Table 7; TfR1 species not stated
[6] = target: T1, recombinant cynomolgus monkey (Macaca …); assay: Table 14, unconjugated Fab, d9 (after 9 days at 40 C); method not named
[7] = target: T2, recombinant human TfR1 (transferrin …); assay: as above
[8] = target: T2, recombinant human TfR1 (transferrin …); assay: ELISA on plate-coated recombinant hTfR1, fluorescent anti-(H+L) IgG-A488 detection, % normalized RFUs
Protocol: To measure binding of humanized anti-TfR antibodies to TfR1, ELISAs were conducted. High binding, black, flat bottom, 96 well plates (Corning #3925) were first coated with 100 μL/well of recombinant huTfR1 at 1 μg/mL in PBS and incubated at 4° C. overnight. Wells were emptied and residual liquid was removed. Blocking was conducted by adding 200 μL of 1% BSA (w/w) in PBS to each well. Blocking was allowed to proceed for 2 hours at room temperature on a shaker at 30) rpm. After blocking, liquid was removed and wells were washed three times with 300 μL of TBST. Anti-TfR1 antibodies were then added in 0.5% BSA/TBST in triplicate in an 8 point serial dilution (dilution range 5 μg/mL-5 ng/mL). A positive control and isotype controls were also included on the ELISA plate. The plate was incubated at room temperature on an orbital shaker for 60 minutes at 300 rpm, and the plate was washed three times with 300 μL of TBST. Anti-(H+L)IgG-A488 (1:500) (Invitrogen #A11013) was diluted in 0.5% BSA in TBST, and 100 μL was added to each well. The plate was then allowed to incubate at room temperature for 60 minutes at 300 rpm on orbital shaker. The liquid was removed and the plate was washed four times with 300 μL of TBST. Absorbance was then measured at 495 nm excitation and […] (with a 15 nm bandwidth) on a plate reader. Data was recorded and analyzed for $EC50$. […] ELISA measurements were conducted using cynomolgus monkey (Macaca fascicularis) TfR1 (cTfR1) according to the same protocol described above for hTfR1, and results are shown in FIGS. 9B, 9D, and 9F.

[9] = target: T1, recombinant cynomolgus monkey (Macaca …); assay: ELISA on plate-coated recombinant cTfR1 (target per paragraph 617), fluorescent anti-(H+L) IgG-A488 detection, % normalized RFUs
Protocol: (§1) To measure binding of humanized anti-TfR antibodies to TfR1, ELISAs were conducted. High binding, black, flat bottom, 96 well plates (Corning #3925) were first coated with 100 μL/well of recombinant huTfR1 at 1 μg/mL in PBS and incubated at 4° C. overnight. Wells were emptied and residual liquid was removed. Blocking was conducted by adding 200 μL of 1% BSA (w/w) in PBS to each well. Blocking was allowed to proceed for 2 hours at room temperature on a shaker at 30) rpm. After blocking, liquid was removed and wells were washed three times with 300 μL of TBST. Anti-TfR1 antibodies were then added in 0.5% BSA/TBST in triplicate in an 8 point serial dilution (dilution range 5 μg/mL-5 ng/mL). A positive control and isotype controls were also included on the ELISA plate. The plate was incubated at room temperature on an orbital shaker for 60 minutes at 300 rpm, and the plate was washed three times with 300 μL of TBST. Anti-(H+L)IgG-A488 (1:500) (Invitrogen #A11013) was diluted in 0.5% BSA in TBST, and 100 μL was added to each well. The plate was then allowed to incubate at room temperature for 60 minutes at 300 rpm on orbital shaker. The liquid was removed and the plate was washed four times with 300 μL of TBST. Absorbance was then measured at 495 nm excitation and […] (with a 15 nm bandwidth) on a plate reader. Data was recorded and analyzed for $EC50$. […]

[10] = target: T2, recombinant human TfR1 (transferrin …); assay: ELISA on hTfR1, unconjugated Fab, % normalized RFUs
[11] = target: T2, recombinant human TfR1 (transferrin …); assay: Biacore, d25; TfR1 species not stated
[12] = target: T1, recombinant cynomolgus monkey (Macaca …); assay: ELISA on cTfR1, unconjugated Fab, % normalized RFUs
[13] = target: T2, recombinant human TfR1 (transferrin …); assay: Biacore, d0; TfR1 species not stated
[14] = target: T1, recombinant cynomolgus monkey (Macaca …); assay: ELISA, recombinant TfR1 coated, Fab-ASO300 conjugate (row 'Conjugate binding affinity ELISA')
[15] = target: T2, recombinant human TfR1 (transferrin …); assay: as above
[16] = target: T1, recombinant cynomolgus monkey (Macaca …); assay: ELISA on cTfR1, Fab conjugated to DMPK-targeting oligonucleotide, % normalized RFUs
[17] = target: T1, recombinant cynomolgus monkey (Macaca …); assay: Table 14, Fab-ASO300 conjugate; method not named
[18] = target: T2, recombinant human TfR1 (transferrin …); assay: Table 14, Fab-ASO300 conjugate; method not named
[19] = target: T2, recombinant human TfR1 (transferrin …); assay: ELISA on hTfR1, Fab conjugated to DMPK-targeting oligonucleotide, % normalized RFUs
[20] = target: T2, recombinant human TfR1 (transferrin …); assay: ELISA on hTfR1, unconjugated Fab, % normalized RFUs; remark: listed apart in the source
[21] = target: T1, recombinant cynomolgus monkey (Macaca …); assay: ELISA on plate-coated recombinant cTfR1, fluorescent anti-(H+L) IgG-A488 detection, % normalized RFUs
Protocol: as §1

[22] = target: T1, recombinant cynomolgus monkey (Macaca …); assay: ELISA on cTfR1, unconjugated Fab, % normalized RFUs

| Binder | EC50 [1] | EC50 [2] | Binding affinity [3] | Binding affinity [4] | Kd [5] | koff [5] | kon [5] | Binding affinity [6] | Binding affinity [7] | EC50 [8] | EC50 [9] | EC50 [10] | Kd [11] | EC50 [12] | Kd [13] | EC50 [20] | EC50 [21] | EC50 [22] | also measured |
| --- | --- | --- | --- | --- | --- | --- | --- | --- | --- | --- | --- | --- | --- | --- | --- | --- | --- | --- | --- |
| B1 | 3.3 nM | 2.8 nM | 3.3 nM | 2.8 nM | 0.626 nM | 0.000117 s⁻¹ | 186000 M⁻¹ s⁻¹ | 0.26 nM | 1730 nM | > 100 nM | 3.4 nM | > 100 nM | 1.33 nM | 3.4 nM | 0.626 nM |  |  |  |  |
| B2 |  |  |  |  |  |  |  |  |  |  |  |  |  |  |  |  |  |  | EC50 [14]: 3.3 nM; EC50 [15]: 23.7 nM; EC50 [16]: 2.8 nM; DMPK oligo conjugate binding [17]: 13.9 nM; DMPK oligo conjugate binding [18]: 13.9 nM; EC50 [19]: 25.5 nM |
| B3 | 2.1 nM | 6.3 nM | 2.1 nM | 6.3 nM | 0.627 nM | 0.000122 s⁻¹ | 195000 M⁻¹ s⁻¹ | 0.69 nM | 71.9 nM | > 100 nM | 2 nM | > 100 nM | 1.07 nM | 2 nM | 0.627 nM |  |  |  |  |
| B4 | 156 nM | 2.6 nM | 156 nM | 2.6 nM | 3.09 nM | 0.000705 s⁻¹ | 228000 M⁻¹ s⁻¹ | 128 nM | 0.4 nM | 2.3 nM |  |  | 3.01 nM |  | 3.09 nM | 2.3 nM | > 100 nM | > 100 nM |  |
| B5 | 398 nM | 1.6 nM | 398 nM | 1.6 nM | 1.34 nM |  |  | 248 nM | 0.65 nM | 1.9 nM |  |  | 1.39 nM |  | 1.34 nM | 1.9 nM | > 100 nM | > 100 nM |  |
